Literature values, collected in article PMC2928749.

Biological target: hHR23B Ubl (Homo sapiens) (UniProt P54727)
Sequence (P54727 1-79): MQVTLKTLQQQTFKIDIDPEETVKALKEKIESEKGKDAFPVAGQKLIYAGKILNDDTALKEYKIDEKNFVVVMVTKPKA

Sequence of Ataxin-3 Josephin (P54252 1-183): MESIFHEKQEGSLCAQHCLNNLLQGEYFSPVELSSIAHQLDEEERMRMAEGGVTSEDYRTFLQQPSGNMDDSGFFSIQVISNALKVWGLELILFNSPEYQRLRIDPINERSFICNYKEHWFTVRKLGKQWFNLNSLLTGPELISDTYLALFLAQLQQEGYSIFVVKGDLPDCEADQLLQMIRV

Substance: Ataxin-3 Josephin (from UniProt P54252)
- Kd: 12 µM
